Data on one substance can be found in patent publication US7056886B2, “GLP-2 formulations” (NPS Allelix, Corp., priority 1999, dated 2006).

Series [1] can be described thus: pH solubility profile of h[Gly2]GLP-2 (precipitation). In kind it is physicochemical. The method, then:
(§1) Based on pH solubility profiles, it was determined that a phosphate buffer provides optimal buffering capacity for GLP-2 peptides. […] L-histidine acts as a stabilizing amino acid that increases the length of time that the GLP-2 peptide remains intact prior to degradation.

Series [2] in a line: Temperature profile / phase transition of h[Gly2]GLP-2. In kind it is physicochemical. The method, then:
It has also been discovered that Tween 80®, salt, and arginine are not suitable materials for producing a stable formulation for h[Gly2]GLP-2.
as §1

As for h[Gly2]GLP-2, the “pH at which the analog precipitated” value in series [1] was “less than 5.5”. Further, in series [2] (depending upon the salt concentration), the phase transition temperature was 40-55 °C. Also, in series [2] (in the presence of salt), the “behaviour in the presence of salt” value is on record as “becomes hydrophobic in the presence of salt”. The “heat-induced and salt-dependent transition temperature” value in series [2] (temperature profiles) is “about 40 °C”.
